We go through seven molecules from patent US20160200831A1 (Sanofi, published 2016).

First the molecules themselves.
B1: A44-hv1 (antibody, V domains shown)
VH: EMTLKESGPTLVKPTQTLSLTCSVTGDSMTNGYWNWIRKFPGKALEYMGYITYSGSTYYNPSLKGRISITRNTSKNQYYLTLSSVTTVDTATYYCARWHYGSPYYFDYWGQGTTLTVSS
VL: DIKMTQSPSSLSASVGDRVTITCKASQDINSYLSWLQQKPGKSPKTLIYRANRSVDGVPSRFSGSGSGQDYSLTISSLQPEDLGIYYCLQYDEFPPTFGGGTKLEIK
notes: humanized A44, HEK293; also called LC1a x HC1a; variant 1
B2: A44-hv2 (antibody, V domains shown)
VH: EMQLQESGPGLVKPSETLSLTCSVTGDSMTNGYWNWIRKFPGKGLEYMGYITYSGSTYYNPSLKGRISITRNTSKNQYYLKLSSVTTADTATYYCARWHYGSPYYFDYWGQGTTLTVSS
VL: DIKMTQSPSSVSVSPGQTVTITCKASQDINSYLSWLQQKPGQSPKTLIYRANRSVDGVPSRFSGSGSGQDYSLTISSLQAMDEGIYYCLQYDEFPPTFGGGTKLTIK
notes: humanized A44, HEK293; constant regions as for A44-hv1; also called LC1b x HC1b; variant 2
B3: A44-hv9 (antibody, V domains shown)
VH: QMQLQESGPGLVKPSETLSLTCTVSGDSMTNGYWNWIRQPPGKGLEYMGYITYSGSTYYNPSLKSRITISRDTSKNQYSLKLSSVTAADTAVYYCARWHYGSPYYFDYWGQGTLVTVSS
VL: DIQMTQSPSSLSASVGDRVTITCKASQDINSYLSWLQQKPGKAPKTLIYRANRSVDGVPSRFSGSGSGQDYTFTISSLQPEDIATYYCLQYDEFPPTFGGGTKVEIK
notes: humanized A44, HEK293; constant regions as for A44-hv1; also called LC5b x HC5b; variant 9
B4: A44-hv7 (antibody, V domains shown)
VH: QMTLKESGPTLVKPTQTLSLTCSVSGESMTQGYWNWIRQFPGKALEYMGYITYSGSTYYNPSLKGRITITRQTSKNQYYLTLSSVTTVETATYYCARWHYGSPYYFDYWGQGTTLTVSS
VL: DIKMTQSPSSLSASVGDRVTITCKASQDINSYLSWLQQKPGKSPKTLIYRAQRSVEGVPSRFSGSGSGQDYSLTISSLQPEDLATYYCLQYDEFPPTFGGGTKLEIK
notes: humanized A44, HEK293; constant regions as for A44-hv1; also called LC4 x HC4; variant 7
B5: A44-hv6 (antibody, V domains shown)
VH: QMTLKESGPTLVKPTQTLSLTCSVSGDSMTNGYWNWIRQFPGKALEYMGYITYSGSTYYNPSLKGRITITRDTSKNQYYLTLSSVTTVDTATYYCARWHYGSPYYFDYWGQGTTLTVSS
VL: DIKMTQSPSSLSASVGDRVTITCKASQDINSYLSWLQQKPGKSPKTLIYRANRSVDGVPSRFSGSGSGQDYSLTISSLQPEDLATYYCLQYDEFPPTFGGGTKLEIK
notes: humanized A44, HEK293; constant regions as for A44-hv1; also called LC3 x HC3; variant 6
B6: A44-hv4 (antibody, V domains shown)
VH: EMTLKESGPTLVKPTQTLSLTCSVTGDSMTQGYWNWIRKFPGKALEYMGYITYSGSTYYNPSLKGRISITRNTSKNQYYLTLSSVTTVDTATYYCARWHYGSPYYFDYWGQGTTLTVSS
VL: DIKMTQSPSSLSASVGDRVTITCKASQDINSYLSWLQQKPGKSPKTLIYRANRSVDGVPSRFSGSGSGQDYSLTISSLQPEDLGIYYCLQYDEFPPTFGGGTKLEIK
notes: humanized A44, HEK293; constant regions as for A44-hv1; also called LC1a x HC2b; variant 4
B7: A44-hv5 (antibody, V domains shown)
VH: EMTLKESGPTLVKPTQTLSLTCSVTGDSMTQGYWNWIRKFPGKALEYMGYITYSGSTYYNPSLKGRISITRNTSKNQYYLTLSSVTTVDTATYYCARWHYGSPYYFDYWGQGTTLTVSS
VL: DIKMTQSPSSLSASVGDRVTITCKASQDINSYLSWLQQKPGKSPKTLIYRAQRSVEGVPSRFSGSGSGQDYSLTISSLQPEDLGIYYCLQYDEFPPTFGGGTKLEIK
notes: humanized A44, HEK293; constant regions as for A44-hv1; also called LC2 x HC2b; variant 5

T1 sequence (P05121 other isoform, or with tags, fused parts or gaps limits assumed): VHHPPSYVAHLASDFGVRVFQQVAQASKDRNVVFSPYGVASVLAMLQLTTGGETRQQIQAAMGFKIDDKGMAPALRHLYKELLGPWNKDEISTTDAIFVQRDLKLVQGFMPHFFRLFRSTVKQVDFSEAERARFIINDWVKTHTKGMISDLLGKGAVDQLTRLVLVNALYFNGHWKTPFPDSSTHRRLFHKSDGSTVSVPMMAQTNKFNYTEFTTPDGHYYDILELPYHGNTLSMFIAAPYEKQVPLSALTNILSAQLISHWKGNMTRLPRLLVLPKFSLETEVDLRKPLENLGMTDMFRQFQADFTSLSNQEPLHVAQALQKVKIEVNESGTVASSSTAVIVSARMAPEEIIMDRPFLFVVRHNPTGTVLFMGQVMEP

The test addresses T1, cynomolgus PAI-1 (cynomolgus monkey (Macaca fascicularis), UniProt P05121 24-402 (human entry)).
T1 construct: produced in-house in E. coli (non-glycosylated); active cyno PAI-1 in the assays; also called cyno PAI-1; cPAI-1
The experiment in a line: Biacore. (In general: SPR reads the build-up and loss of mass on a sensor chip optically.)
B1: the binding result is “binds”.
Regarding B2, the binding result is recorded as “binds”.
For the molecule B3, the binding result is on record as “binds”.
The value for B4 was “binds”; that for B5 was “binds”.
Regarding B6, the binding result is “binds”.
With B7 the entry was “binds”.
